The chains are these.
B1: Phage-253 (peptide)
peptide: YCEGHSLEYMGKCL
B2: Phage-175 (peptide)
peptide: YCDGHSNEYMAKCL
B3: Phage-180 (peptide)
peptide: YCDGHSLEYMAKCL
B4: Phage-173 (peptide)
peptide: YCDGHVAEYRDKCL
B5: Phage-255 (peptide)
peptide: YCDGHMGVYYWKCL
B6: Phage-285 (peptide)
peptide: YCEGHLPIYLSKCL
B7: Phage-282 (peptide)
peptide: YCDGHSPEHIRKCL
B8: Phage-177 (peptide)
peptide: YCDGHVAEYMAKCL
B9: Phage-178 (peptide)
peptide: YCDGHLPEYMWKCI
B10: Phage-179 (peptide)
peptide: YCDGHSAEYMWKCL
B11: Phage-277 (peptide)
peptide: YCDGHSSEYMIKCL
B12: Phage-279 (peptide)
peptide: YCDGHSAEYMQKCL
B13: Phage-276 (peptide)
peptide: YCDGHSALYMWKCL
B14: Phage-169 (peptide)
peptide: YCEGHLPVYMWKCL
B15: Phage-170 (peptide)
peptide: YCDGHMPEYMWKCL
B16: Phage-254 (peptide)
peptide: YCDGHAPEYMEKCL
B17: Phage-246 (peptide)
peptide: YCEGHAPQYIAKCL
B18: Phage-258 (peptide)
peptide: YCQGHLPEYMSKCL
B19: Phage-247 (peptide)
peptide: YCDGHSPMYIGKCL
B20: Phage-257 (peptide)
peptide: YCDGHSHEYMEKCL
B21: Phage-274 (peptide)
peptide: YCDGHLPEYLGKCL
B22: Phage-275 (peptide)
peptide: YCAGHSVEYMAKCL
B23: Phage-281 (peptide)
peptide: YCEGHLSQYMEKCL
B24: Phage-171 (peptide)
peptide: YCAGHSPEYMTKCL
B25: Phage-251 (peptide)
peptide: YCEGHSPEYMTKCL
B26: Phage-280 (peptide)
peptide: YCDGHLVEYMSKCL
B27: Phage-284 (peptide)
peptide: YCEGHLSEYMAKCL
B28: Phage-168 (peptide)
peptide: YCDGHTQEYMAKCL
B29: Phage-252 (peptide)
peptide: YCEGHSIQYMAKCL
B30: Phage-176 (peptide)
peptide: YCEGHLPQYLQKCL
B31: Phage-283 (peptide)
peptide: YCAGHLEIYMNKCL
B32: Phage-249 (peptide)
peptide: YCEGHRPEYMQKCL
B33: Phage-250 (peptide)
peptide: YCEGHAREHMAKCL
B34: Phage-256 (peptide)
peptide: YCDGHEAQYMSKCL
B35: Phage-299 (peptide)
peptide: YCDGHLKEYQEKCL
B36: Phage-278 (peptide)
peptide: YCDGHLIEYMYKCL
B37: Phage-174 (peptide)
peptide: YCAGHAPEYMQKCL
B38: Phage-248 (peptide)
peptide: YCAGHLPEYMMKCL
B39: Phage-172 (peptide)
peptide: YCAGHAPEYIQKCL
B40: Phage-273 (peptide)
peptide: YCDGHLEQYRAKCL
B41: Phage-305 (peptide)
peptide: YCDGHSQEYMWKCL
B42: Phage-392 (peptide)
peptide: YCDGHSQEYMLKCL
B43: Phage-424 (peptide)
peptide: YCDGHLSEYMAKCL
B44: Phage-407 (peptide)
peptide: YCDGHASEYMAKCL
B45: Phage-401 (peptide)
peptide: YCEGHSAEYMLKCL
B46: Phage-411 (peptide)
peptide: YCSGHSAEYMLKCL
B47: Phage-399 (peptide)
peptide: YCDGHSPEYMNKCL
B48: Phage-391 (peptide)
peptide: YCDGHIPEYLAKCL
B49: Phage-306 (peptide)
peptide: YCDGHAPEYMKKCL
B50: Phage-309 (peptide)
peptide: YCDGHAEEYMSKCL
B51: Phage-308 (peptide)
peptide: YCDGHEPQYLEKCL
B52: Phage-362 (peptide)
peptide: YCAGHSSEYIWKCL
B53: Phage-433 (peptide)
peptide: YCAGHSAEYMWKCL
B54: Phage-419 (peptide)
peptide: YCAGHSAEYMAKCL
B55: Phage-310 (peptide)
peptide: YCDGHVEEYLYKCL
B56: Phage-353 (peptide)
peptide: YCEGHAAEYMWKCL
B57: Phage-439 (peptide)
peptide: YCEGHAQEYMSKCL
B58: Phage-404 (peptide)
peptide: YCEGHLPEYMQKCL
B59: Phage-412 (peptide)
peptide: YCEGHLPDYMQKCL
B60: Phage-417 (peptide)
peptide: YCSGHLPEYMGKCL
B61: Phage-403 (peptide)
peptide: YCSGHLPEYMQKCL
B62: Phage-307 (peptide)
peptide: YCDGHSKEYMHKCL
B63: Phage-311 (peptide)
peptide: YCAGHLEEYMDKCL

T2 sequence (VH, as listed by the source, chain 1 of 2): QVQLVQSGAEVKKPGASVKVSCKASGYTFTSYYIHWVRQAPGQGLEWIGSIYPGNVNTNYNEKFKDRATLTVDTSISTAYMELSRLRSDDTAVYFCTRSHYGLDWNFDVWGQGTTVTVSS
T2 sequence (VL, as listed by the source, chain 2 of 2): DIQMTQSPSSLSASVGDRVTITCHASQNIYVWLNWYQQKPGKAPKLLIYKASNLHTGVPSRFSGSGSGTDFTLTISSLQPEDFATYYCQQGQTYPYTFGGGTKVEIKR

In one test the target is T1, Anti-CD28 Fab (SEQ ID NOs: 202, 203).
T1 construct: biotinylated and captured on neutravidin coated plates in the phage ELISA
T1 sequence (VH, as listed by the source, chain 1 of 2): as the sequence (VH, as listed by the source, chain 1 of 2) above
T1 sequence (VL, as listed by the source, chain 2 of 2): as the sequence (VL, as listed by the source, chain 2 of 2) above
The test can be described thus: phage ELISA on captured biotinylated Fab.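 Further: wells preblocked with or without CD28 antigen, then clonal phage supernatant added briefly, washed, and bound phage read out by ELISA using HRP-linked anti-M13 antibody.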
Procedure: (§1) Clonal phage were harvested as crude supernatants and screened via standard ELISAs. […] Prior to the addition of clonal phage, wells were incubated with blocking buffer and CD28 antigen or blocking buffer alone. Without washing or aspirating, clonal phage supernatants were then added to the wells and incubated for a short time. Wells were then washed followed by detection of bound phage using a horse radish conjugated anti-M13 antibody.
Take B1: the “Anti-CD28 Fab signal” value turned out to be 2.02.
Turning to B2, the “Anti-CD28 Fab signal” value worked out at 2.16.
Regarding B3, the “Anti-CD28 Fab signal” value turned out to be 2.15.
The same measure, in the same setting: to B4 belongs 2.17.
The same measure, in the same setting: with B5 the figure was 2.01.
For the molecule B6, the “Anti-CD28 Fab signal” value was determined as 1.94.
As for B7, the “Anti-CD28 Fab signal” value worked out at 1.94.
With B8, the “Anti-CD28 Fab signal” value stood at 2.16.
Still for that read-out and setting: with B9 the figure was 2.15; with B10, 2.15.
On the same count and under the same terms, to B11 belongs 1.95; to B12, 1.95; to B13, 1.96.
Take B14: the “Anti-CD28 Fab signal” value worked out at 2.17.
As for B15, the “Anti-CD28 Fab signal” value amounted to 2.17.
On the same count and under the same terms, with B16 the figure was 2.01; with B17, 2.03.
As for B18, the “Anti-CD28 Fab signal” value is 2.01.
Still for that read-out and setting: to B19 belongs 2.03; to B20, 2.01.
Same read-out and setting: to B21 belongs 1.96.
On to B22, for which the “Anti-CD28 Fab signal” value was found to be 1.96.
Still for that read-out and setting: to B23 belongs 1.95; to B24, 2.17; to B25, 2.02.
For B26, the “Anti-CD28 Fab signal” value was found to be 1.95.
For the molecule B27, the “Anti-CD28 Fab signal” value was 1.94.
As for B28, the “Anti-CD28 Fab signal” value was found to be 2.17.
The same measure, in the same setting: with B29 the figure was 2.02; with B30, 2.16; with B31, 1.94.
As for B32, the “Anti-CD28 Fab signal” value worked out at 2.03.
Take B33: the “Anti-CD28 Fab signal” value came out at 2.02.
Consider B34, for which the “Anti-CD28 Fab signal” value is 2.01.
On the same count and under the same terms, to B35 belongs 1.91; to B36, 1.95.
Consider B37, for which the “Anti-CD28 Fab signal” value came to 2.16.
Consider B38, for which the “Anti-CD28 Fab signal” value came to 2.03.
On to B39, for which the “Anti-CD28 Fab signal” value is 2.17.
The same measure, in the same setting: with B40 the figure was 1.96.

The next test has as its target T2, anti-CD28 Fab (SEQ ID NOs: 202, 203).
T2 construct: biotinylated and captured on neutravidin coated plates in the phage ELISA
The test is described as follows: phage binding ELISA; biotinylated Fab on neutravidin plate.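 Further: clonal phage supernatants added to Fab wells pretreated with CD28 antigen or with blocking buffer only, bound phage read out via HRP-linked anti-M13 antibody.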
Procedure: as §1
With B41, the “Anti-CD28 Fab (SEQ ID NOs: 202, 203) signal” value was 1.9.
The same measure, in the same setting: to B42 belongs 1.76.
Same read-out and setting: with B43 the figure was 1.72.
With B44, the “Anti-CD28 Fab (SEQ ID NOs: 202, 203) signal” value stood at 1.75.
B45: the “Anti-CD28 Fab (SEQ ID NOs: 202, 203) signal” value stood at 1.75.
As for B46, the “Anti-CD28 Fab (SEQ ID NOs: 202, 203) signal” value amounted to 1.73.
As for B47, the “Anti-CD28 Fab (SEQ ID NOs: 202, 203) signal” value came out at 1.75.
In the case of B48, the “Anti-CD28 Fab (SEQ ID NOs: 202, 203) signal” value worked out at 1.76.
The same measure, in the same setting: to B49 belongs 1.9; to B50, 1.9; to B51, 1.9.
Same read-out and setting: to B52 belongs 1.82; to B53, 1.71; to B54, 1.73.
On to B55, for which the “Anti-CD28 Fab (SEQ ID NOs: 202, 203) signal” value is 1.9.
B56: the “Anti-CD28 Fab (SEQ ID NOs: 202, 203) signal” value amounted to 1.83.
Regarding B57, the “Anti-CD28 Fab (SEQ ID NOs: 202, 203) signal” value came out at 1.7.
B58: the “Anti-CD28 Fab (SEQ ID NOs: 202, 203) signal” value was 1.75.
Turning to B59, the “Anti-CD28 Fab (SEQ ID NOs: 202, 203) signal” value came out at 1.73.
Take B60: the “Anti-CD28 Fab (SEQ ID NOs: 202, 203) signal” value came to 1.73.
The same measure, in the same setting: to B61 belongs 1.75.
Consider B62, for which the “Anti-CD28 Fab (SEQ ID NOs: 202, 203) signal” value came to 1.9.
Take B63: the “Anti-CD28 Fab (SEQ ID NOs: 202, 203) signal” value came out at 1.9.

Values taken from patent US20260274955A1 (JANUX THERAPEUTICS, published 2026).
